Source: PMC8649762, “A Hyperthermoactive-Cas9 Editing Tool Reveals the Role of a Unique Arsenite Methyltransferase in the Arsenic Resistance System of Thermus thermophilus HB27” (mBio, 2021)
Like-named read-outs stand apart in the source and are kept apart here.

Tests used:
TtArsM (TTC0109) = target: T1, TtArsM (TTC0109) (Thermus thermophilus, UniProt Q72LF0); assay: coupled colorimetric SAH-release methyltransferase assay, […] nm; products by GC-MS; format: biochemical; conditions: methyl donor; same
T1 construct: gene TT_C0109; full-length, C-terminal His tag (pET30b NdeI/HindIII), E. coli BL21-CodonPlus(DE3)-RIL
T1 sequence (Q72LF0 1-249): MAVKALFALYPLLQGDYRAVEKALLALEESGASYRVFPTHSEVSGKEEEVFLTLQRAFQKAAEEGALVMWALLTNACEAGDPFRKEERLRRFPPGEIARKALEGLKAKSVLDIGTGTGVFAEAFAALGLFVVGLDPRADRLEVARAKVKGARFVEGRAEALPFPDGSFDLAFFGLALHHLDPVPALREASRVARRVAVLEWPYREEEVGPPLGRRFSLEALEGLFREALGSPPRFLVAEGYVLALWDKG

TtSmtB-TtArsM complex = target: T2, TtSmtB-TtArsM complex (Thermus thermophilus, UniProt Q72KG0); format: binding; conditions: 1:100 protein/arsenic ratio, arsenite preincubated with TtSmtB 10 min at 60 °C, co-IP buffer pH 7.5, weakens the protein-protein complex
T2 construct: gene smtB; recombinant TtSmtB (E. coli, C-terminal His tag removed) plus C-terminally His-tagged TtArsM; with Arsenite methyltransferase (ArsR family transcriptional regulator / SAM-dependent methyltransferase domain protein)

[1] = target: T3, TtArsM (Thermus thermophilus HB27) (UniProt Q72LF0); assay: EMSA; conditions: EMSA: 20 ng parsM, 1 ug poly(dI-dC), SYBR Gold stain; buffer, salt, pH and temperature as in previous work (refs 23, 62), not given
T3 sequence: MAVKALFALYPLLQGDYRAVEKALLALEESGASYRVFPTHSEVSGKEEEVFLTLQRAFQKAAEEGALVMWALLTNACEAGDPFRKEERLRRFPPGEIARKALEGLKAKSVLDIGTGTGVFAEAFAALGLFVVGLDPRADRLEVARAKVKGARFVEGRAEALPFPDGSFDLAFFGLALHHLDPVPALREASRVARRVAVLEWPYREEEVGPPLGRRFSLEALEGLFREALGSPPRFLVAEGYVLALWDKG

[2] = target: the molecule itself; assay: SEC; 500 μg purified TtArsM on analytical Superdex PC75, 50 mM Tris-HCl pH 7.5, 0.2 M KCl; calibrated with gel filtration markers
[3] = target: T4, Recombinant TtSmtB with the His tag removed (Thermus thermophilus HB27, UniProt Q72KG0 1-123); assay: co-IP; 5 μg TtSmtB (His tag removed) and 5 μg His-tagged TtArsM in co-IP buffer (50 mM Tris-HCl pH 7.5, 150 mM NaCl, 10% glycerol, 0.1% Triton X-100), 4°C, 2 h; immunoprecipitated with anti-TtSmtB antibodies and protein A-Sepharose, blot with anti-His; with or without arsenite, arsenate, cadmium or antimony at 1:0, 1:25, 1:50, 1:100 molar ratios preincubated with TtSmtB; conditions: both partners purified
T4 construct: TtSmtB, ArsR/SmtB family transcriptional repressor of Thermus thermophilus HB27; source: E. coli BL21-CodonPlus (DE3)-RIL, pET28/TtsmtB, purified; His tag removed; not shown: His tag, C-terminal, cleaved
T4 sequence (looked up): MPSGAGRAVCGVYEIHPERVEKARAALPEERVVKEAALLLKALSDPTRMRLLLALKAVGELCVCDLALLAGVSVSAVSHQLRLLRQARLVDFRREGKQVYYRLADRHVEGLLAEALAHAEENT

## C[S+](CC[C@H](N)C(=O)O)C[C@H]1O[C@@H](n2cnc3c(N)ncnc32)[C@H](O)[C@@H]1O (some centres unmarked) [SAM]
TtArsM (TTC0109)
  coupled colorimetric SAH-release methyltransferase assay, 510 nm; products by GC: formation of S-adenosylhomocysteine (SAH) from SAM after transfer of methyl group(s) on the substrate

## O=[As](O)(O)O [arsenate]
TtSmtB-TtArsM complex; with arsenate
  fold decrease in complex band intensity: up to 3

## O[As](O)O [arsenite]
TtSmtB-TtArsM complex
  fold decrease in complex band intensity: up to 3

## GGAAGGGGAAGCGGTGTTTCTCGCCCCCGAGGCCAATCCCCCCTACGAGGAGGCGGACCAGGCGGGAAGGCGCGCGGGGAACCGCCCCGCCCTATACTTGGGGAGATG (double strand) [parsM]
[1]
  binding: no binding

B1: Recombinant C-terminal His-tagged TtArsM (TTC0109) (enzyme, Thermus thermophilus HB27, UniProt Q72LF0 1-249, looked up)
chain: MAVKALFALYPLLQGDYRAVEKALLALEESGASYRVFPTHSEVSGKEEEVFLTLQRAFQKAAEEGALVMWALLTNACEAGDPFRKEERLRRFPPGEIARKALEGLKAKSVLDIGTGTGVFAEAFAALGLFVVGLDPRADRLEVARAKVKGARFVEGRAEALPFPDGSFDLAFFGLALHHLDPVPALREASRVARRVAVLEWPYREEEVGPPLGRRFSLEALEGLFREALGSPPRFLVAEGYVLALWDKG
notes: TtArsM (TTC0109) of Thermus thermophilus HB27; TtarsM gene PCR amplified from the genome and cloned NdeI/HindIII into pET30b(+); predicted mass 29.1 kDa; source: E. coli BL21-CodonPlus (DE3)-RIL, pET30b(+)/TtarsM, purified (HisTrap); not shown: His tag, C-terminal, kept
[2]
  stoichiometry N: 2
[3]
  fold decrease of the co-IP band with arsenate (1:100 protein/arsenic ratio) against the complex without metal: ≤ 3 fold
  fold decrease of the co-IP band with arsenite (1:100 protein/arsenic ratio) against the complex without metal: ≤ 3 fold
  fold increase of the co-IP band with cadmium against the complex without metal: ≤ 2 fold
